Assay [1] concerns the target T1, Human C3 (human, UniProt P01024 23-1663). Description: cell-based or functional assay.
Assay [2] has as its target T1, Human C3. Description: SPR, C3 immobilised. The essentials:
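Human C3 amine-coupled to a CM5 chip at ~3000 RU; peptides injected multi-cycle at 5-8 concentrations for 60-120 s in Tris pH 7.4, 150 mM NaCl, 0.05% Tween20 at 25° C, dissociation up to 10 min.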

Here are results for 5 molecules from patent publication US20220306695A1, “COMPSTATIN ANALOGUES AND THEIR MEDICAL USES” (priority 2019, published 2022).

What is called Kd is the free concentration of one partner at which half of the binding sites on the other are occupied at equilibrium, for simple one-to-one binding. A high value points to weaker binding.

Positions of bridges follow the written chain, without caps; N, C: chain ends. Non-standard residues stand in square brackets, D forms with d. Trp(1-Me) = Cn1cc(C[C@H](N)C(=O)O)c2ccccc21; 1Nal = N[C@@H](Cc1cccc2ccccc12)C(=O)O; 2Nal = N[C@@H](Cc1ccc2ccccc2c1)C(=O)O; Sar = CNCC(=O)O

T1 sequence (P01024 23-1663 limits assumed): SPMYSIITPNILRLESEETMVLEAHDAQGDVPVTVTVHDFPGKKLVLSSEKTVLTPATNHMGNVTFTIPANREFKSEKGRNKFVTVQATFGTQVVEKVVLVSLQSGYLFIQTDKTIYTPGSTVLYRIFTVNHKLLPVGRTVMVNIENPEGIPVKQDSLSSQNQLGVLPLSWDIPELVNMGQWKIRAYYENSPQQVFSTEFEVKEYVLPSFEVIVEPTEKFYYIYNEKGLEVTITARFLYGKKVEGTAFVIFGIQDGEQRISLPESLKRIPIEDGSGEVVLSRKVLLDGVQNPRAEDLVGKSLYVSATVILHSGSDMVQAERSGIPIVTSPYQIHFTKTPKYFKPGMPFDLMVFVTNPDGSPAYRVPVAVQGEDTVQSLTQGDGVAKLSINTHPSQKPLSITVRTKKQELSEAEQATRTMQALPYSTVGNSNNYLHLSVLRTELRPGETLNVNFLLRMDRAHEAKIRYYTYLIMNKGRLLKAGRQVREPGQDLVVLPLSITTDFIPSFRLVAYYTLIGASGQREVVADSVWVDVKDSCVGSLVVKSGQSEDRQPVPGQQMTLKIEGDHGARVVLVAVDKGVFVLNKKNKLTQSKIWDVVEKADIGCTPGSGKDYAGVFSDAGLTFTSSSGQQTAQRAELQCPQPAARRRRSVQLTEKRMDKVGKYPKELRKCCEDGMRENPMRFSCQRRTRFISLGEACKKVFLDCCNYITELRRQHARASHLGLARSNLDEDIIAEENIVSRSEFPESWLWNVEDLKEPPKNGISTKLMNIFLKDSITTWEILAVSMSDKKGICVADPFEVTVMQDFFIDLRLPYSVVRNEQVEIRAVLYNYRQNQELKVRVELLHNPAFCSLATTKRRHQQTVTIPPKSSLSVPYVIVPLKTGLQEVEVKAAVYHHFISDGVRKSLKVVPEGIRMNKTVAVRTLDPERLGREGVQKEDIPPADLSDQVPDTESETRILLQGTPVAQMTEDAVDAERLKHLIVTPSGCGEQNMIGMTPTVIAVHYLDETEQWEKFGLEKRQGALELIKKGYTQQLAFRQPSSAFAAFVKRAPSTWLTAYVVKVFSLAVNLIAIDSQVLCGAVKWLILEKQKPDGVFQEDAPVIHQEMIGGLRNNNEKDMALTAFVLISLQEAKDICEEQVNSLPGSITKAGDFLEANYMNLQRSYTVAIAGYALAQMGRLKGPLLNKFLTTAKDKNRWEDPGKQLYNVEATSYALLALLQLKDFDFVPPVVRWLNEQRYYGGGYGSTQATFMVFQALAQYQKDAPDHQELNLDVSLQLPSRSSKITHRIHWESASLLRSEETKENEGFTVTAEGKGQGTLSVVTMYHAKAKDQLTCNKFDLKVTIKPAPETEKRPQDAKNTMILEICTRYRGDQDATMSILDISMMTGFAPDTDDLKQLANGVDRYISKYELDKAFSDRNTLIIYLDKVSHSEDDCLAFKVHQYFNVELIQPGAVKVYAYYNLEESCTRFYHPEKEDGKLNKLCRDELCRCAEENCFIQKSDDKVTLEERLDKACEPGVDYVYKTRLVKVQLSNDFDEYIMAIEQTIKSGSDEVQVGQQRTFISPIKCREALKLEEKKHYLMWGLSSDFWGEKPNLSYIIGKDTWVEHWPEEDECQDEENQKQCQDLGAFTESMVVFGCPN

B1: Compound 49 (peptide)
peptide: Ac-EGSAICI[Trp(1-Me)]QDWGEHRC[Sar]E-NH2
modifications: disulfide 6-16
SMILES: CC[C@H](C)[C@H](NC(=O)[C@H](C)NC(=O)[C@H](CO)NC(=O)CNC(=O)[C@H](CCC(=O)O)NC(C)=O)C(=O)N[C@H]1CSSC[C@@H](C(=O)N(C)CC(=O)N[C@@H](CCC(=O)O)C(N)=O)NC(=O)[C@H](CCCNC(=N)N)NC(=O)[C@H](Cc2c[nH]cn2)NC(=O)[C@H](CCC(=O)O)NC(=O)CNC(=O)[C@H](Cc2c[nH]c3ccccc23)NC(=O)[C@H](CC(=O)O)NC(=O)[C@H](CCC(N)=O)NC(=O)[C@H](Cc2cn(C)c3ccccc23)NC(=O)[C@H]([C@@H](C)CC)NC1=O
Take B1: in the assay with Human C3 [1], the “IC50[nM], inhibition of hemolysis” value was below 100 nM. For the same molecule, the dissociation constant Kd with Human C3 [2] came to 3.2 nM.

B2: Compound 81 (peptide)
peptide: Ac-SE[Sar]CI[Trp(1-Me)]QDWGEHRC[Sar]EA-NH2
modifications: disulfide 4-14
SMILES: CC[C@H](C)[C@@H]1NC(=O)[C@@H](NC(=O)CN(C)C(=O)[C@H](CCC(=O)O)NC(=O)[C@H](CO)NC(C)=O)CSSC[C@@H](C(=O)N(C)CC(=O)N[C@@H](CCC(=O)O)C(=O)N[C@@H](C)C(N)=O)NC(=O)[C@H](CCCNC(=N)N)NC(=O)[C@H](Cc2c[nH]cn2)NC(=O)[C@H](CCC(=O)O)NC(=O)CNC(=O)[C@H](Cc2c[nH]c3ccccc23)NC(=O)[C@H](CC(=O)O)NC(=O)[C@H](CCC(N)=O)NC(=O)[C@H](Cc2cn(C)c3ccccc23)NC1=O
With B2, in the assay with Human C3 [1], the “IC50[nM], inhibition of hemolysis” value was below 100 nM. This molecule had a Kd with Human C3 [2] of 9.7 nM.

B3: Compound 50 (peptide)
peptide: Ac-EGSAICI[2Nal]QDWGEHRC[Sar]E-NH2
modifications: disulfide 6-16
SMILES: CC[C@H](C)[C@H](NC(=O)[C@H](C)NC(=O)[C@H](CO)NC(=O)CNC(=O)[C@H](CCC(=O)O)NC(C)=O)C(=O)N[C@H]1CSSC[C@@H](C(=O)N(C)CC(=O)N[C@@H](CCC(=O)O)C(N)=O)NC(=O)[C@H](CCCNC(=N)N)NC(=O)[C@H](Cc2c[nH]cn2)NC(=O)[C@H](CCC(=O)O)NC(=O)CNC(=O)[C@H](Cc2c[nH]c3ccccc23)NC(=O)[C@H](CC(=O)O)NC(=O)[C@H](CCC(N)=O)NC(=O)[C@H](Cc2ccc3ccccc3c2)NC(=O)[C@H]([C@@H](C)CC)NC1=O
B3: in the assay with Human C3 [1], the “IC50[nM], inhibition of hemolysis” value was below 100 nM. The same molecule came in with a dissociation constant Kd with Human C3 [2] of 13 nM.

B4: Compound 73 (peptide)
peptide: H-[dY]FCI[Trp(1-Me)]QDW[Sar]EHRCTGAES-NH2
modifications: disulfide 3-13
SMILES: CC[C@H](C)[C@@H]1NC(=O)[C@@H](NC(=O)[C@H](Cc2ccccc2)NC(=O)[C@H](N)Cc2ccc(O)cc2)CSSC[C@@H](C(=O)N[C@H](C(=O)NCC(=O)N[C@@H](C)C(=O)N[C@@H](CCC(=O)O)C(=O)N[C@@H](CO)C(N)=O)[C@@H](C)O)NC(=O)[C@H](CCCNC(=N)N)NC(=O)[C@H](Cc2c[nH]cn2)NC(=O)[C@H](CCC(=O)O)NC(=O)CN(C)C(=O)[C@H](Cc2c[nH]c3ccccc23)NC(=O)[C@H](CC(=O)O)NC(=O)[C@H](CCC(N)=O)NC(=O)[C@H](Cc2cn(C)c3ccccc23)NC1=O
As to B4, the “IC50[nM], inhibition of hemolysis” value with Human C3 [1] is below 100 nM. Moreover, the affinity with Human C3 [2], expressed as Kd, was 0.3 nM.

B5: Compound 63 (peptide)
peptide: Ac-FCI[1Nal]QDWGEHRCTGAES-NH2
modifications: disulfide 2-12
SMILES: CC[C@H](C)[C@@H]1NC(=O)[C@@H](NC(=O)[C@H](Cc2ccccc2)NC(C)=O)CSSC[C@@H](C(=O)N[C@H](C(=O)NCC(=O)N[C@@H](C)C(=O)N[C@@H](CCC(=O)O)C(=O)N[C@@H](CO)C(N)=O)[C@@H](C)O)NC(=O)[C@H](CCCNC(=N)N)NC(=O)[C@H](Cc2c[nH]cn2)NC(=O)[C@H](CCC(=O)O)NC(=O)CNC(=O)[C@H](Cc2c[nH]c3ccccc23)NC(=O)[C@H](CC(=O)O)NC(=O)[C@H](CCC(N)=O)NC(=O)[C@H](Cc2cccc3ccccc23)NC1=O
Take B5: in the assay with Human C3 [1], the “IC50[nM], inhibition of hemolysis” value is below 100 nM. Further, the Kd in the assay with Human C3 [2] is 4.3 nM.
